Key:
[1] = target: T1, Zmax1/LRP5 ligand binding domain bait LBD4 (Arg1070-Pro1376) (human, UniProt O75197 1070-1376); assay: Y2H, growth on selective media
T1 construct: also called pDBleuLBD4; not shown: not described
T1 sequence: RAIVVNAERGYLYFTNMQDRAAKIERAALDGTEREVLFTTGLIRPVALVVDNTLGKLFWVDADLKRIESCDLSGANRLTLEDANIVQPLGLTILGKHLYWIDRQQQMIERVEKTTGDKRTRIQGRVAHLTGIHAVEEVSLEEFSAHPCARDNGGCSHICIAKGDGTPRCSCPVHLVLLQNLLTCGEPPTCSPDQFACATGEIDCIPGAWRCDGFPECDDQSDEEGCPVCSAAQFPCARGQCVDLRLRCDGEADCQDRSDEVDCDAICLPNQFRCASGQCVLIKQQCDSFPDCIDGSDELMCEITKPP
From the text: (§1) These clones were transformed into yeast and mated with each of three yeast strains containing pDBleu (Gibco/BRL), pDBleuLBD1, and pDBleuLBD4. Positive interactions were detected by growth of the hybrids on appropriate selective media.

[2] = target: T2, Zmax1/LRP5 ligand binding domain bait LBD1 (Leu969-Pro1376) (human, UniProt O75197 969-1376); assay: Y2H, growth on selective media
T2 construct: also called pDBleuLBD1; not shown: not described
T2 sequence: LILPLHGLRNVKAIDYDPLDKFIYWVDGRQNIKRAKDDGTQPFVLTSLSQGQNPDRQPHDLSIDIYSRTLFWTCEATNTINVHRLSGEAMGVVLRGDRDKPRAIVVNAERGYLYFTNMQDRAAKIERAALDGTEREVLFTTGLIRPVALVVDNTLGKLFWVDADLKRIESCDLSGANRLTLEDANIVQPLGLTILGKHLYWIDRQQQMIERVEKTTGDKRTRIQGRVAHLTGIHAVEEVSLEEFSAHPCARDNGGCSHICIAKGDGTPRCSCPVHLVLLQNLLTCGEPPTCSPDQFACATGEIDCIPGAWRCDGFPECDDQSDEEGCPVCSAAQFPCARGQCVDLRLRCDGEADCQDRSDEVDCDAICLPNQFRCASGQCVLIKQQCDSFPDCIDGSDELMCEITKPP
From the text: as §1

LRP5LBD-LexA bait = target: T3, LRP5LBD-LexA bait (human, UniProt O75197 969-1376, limits assumed); assay: Y2H interaction trap, lacZ reporter under a single LexA operator
T3 construct: Neither the limits of the LBD nor the order of the two parts is stated; also called LRP5 LBD fused with LexA; not shown: LexA
T3 sequence: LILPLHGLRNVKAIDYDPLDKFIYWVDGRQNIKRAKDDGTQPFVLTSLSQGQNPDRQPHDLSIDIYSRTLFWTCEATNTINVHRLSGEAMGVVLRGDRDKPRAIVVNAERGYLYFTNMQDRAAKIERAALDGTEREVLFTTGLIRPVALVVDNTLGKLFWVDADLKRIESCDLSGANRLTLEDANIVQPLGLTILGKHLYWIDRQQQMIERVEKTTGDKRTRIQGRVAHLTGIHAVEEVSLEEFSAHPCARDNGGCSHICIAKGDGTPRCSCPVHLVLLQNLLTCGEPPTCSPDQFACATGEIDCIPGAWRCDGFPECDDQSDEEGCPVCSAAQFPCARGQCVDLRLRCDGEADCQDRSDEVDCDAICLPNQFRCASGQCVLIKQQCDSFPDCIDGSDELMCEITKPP
From the text: For example, the Interaction Trap methodology can be used as follows.

| Binder | binding result [1] | binding result [2] | fold activation of lacZ reporter over the background (LRP5LBD-LexA bait) |
| --- | --- | --- | --- |
| Dkk-1 clone D8 (F2/R2: Cys97-Cys245) (ligand, not shown: large carriers) CASPTRGGDAGVQICLACRKRRKRCMRHAMCCPGNYCKNGICVSSDQNHFRGEIEETITESFGNDHSTLDGYSRRTTLSSKMYHTKGQEGSVCLRSSDCASGLCCARHFWSKICKPVLKEGQVCTKHRRKGSHGLEIFQRCYCGEGLSC | binds | binds | – |
| Dkk-1 clone D4 (F1/R2: Asn34-Cys245) (ligand, not shown: large carriers) NSVLNSNAIKNLPPPLGGAAGHPGSAVSAAPGILYPGGNKYQTIDNYQPYPCAEDEECGTDEYCASPTRGGDAGVQICLACRKRRKRCMRHAMCCPGNYCKNGICVSSDQNHFRGEIEETITESFGNDHSTLDGYSRRTTLSSKMYHTKGQEGSVCLRSSDCASGLCCARHFWSKICKPVLKEGQVCTKHRRKGSHGLEIFQRCYCGEGLSC | binds | binds | – |
| Dkk-1 clone D11 (F3/R2: Val139-Cys245) (ligand, not shown: large carriers) VSSDQNHFRGEIEETITESFGNDHSTLDGYSRRTTLSSKMYHTKGQEGSVCLRSSDCASGLCCARHFWSKICKPVLKEGQVCTKHRRKGSHGLEIFQRCYCGEGLSC | no binding | no binding | – |
| Dkk-1 clone isolated from the HOB03C5 osteoblast library (Gal4 activation domain fusion prey) (ligand, S. cerevisiae, also called Gal4AD-Dkk prey) ANFNQSGNIADSSLSFTFTNSSNGPNLITTQTNSQALSQPIASSNVHDNFMNNEITASKIDDGNNSKPLSPGWTDQTAYNAFGITTGMFNTTTMDDVYNYLFDDEDTPPNPKKETLNSVLNSNAIKNLPPPLGGAAGHPGSAVSAAPGILYPGGNKYQTIDNYQPYPCAEDEECGTDEYCASPTRGGDAGVQICLACRKRRKRCMRHAMCCPGNYCKNGICVSSDQNHFRGEIEETITESFGNDHSTLDGYSRRTTLSSKMYHTKGQEGSVCLRSSDCASGLCCARHFWSKICKPVLKEGQVCTKHRRKGSHGLEIFQRCYCGEGLSCRIQKDHHQASNSSRLHTCQRH | – | – | > 20 fold |
| Dkk-1 clone D3 (F1/R1: Asn34-Lys182) (ligand, not shown: large carriers) NSVLNSNAIKNLPPPLGGAAGHPGSAVSAAPGILYPGGNKYQTIDNYQPYPCAEDEECGTDEYCASPTRGGDAGVQICLACRKRRKRCMRHAMCCPGNYCKNGICVSSDQNHFRGEIEETITESFGNDHSTLDGYSRRTTLSSKMYHTK | no binding | no binding | – |

Reference: patent US20070128187A1 (GENOME THERAPEUTICS, published 2007)
